For data set [1], the system named is tHcy, cystathionine. The data set is described as follows: Betaine, PEGC15S and combination treatment: transsulfuration metabolites. The format is in vivo, HO mice. The method, then:
(§1) Plasma metabolites homocysteine, cystathionine and cysteine were determined by stable-isotope-dilution liquid chromatography mass spectrometry as previously described in (Allen et al., 1993, Metabolism, 42: 1448-1460). Measurements of total non-protein bound homocysteine and other aminothiols as well as of amino acids in tissue were performed as described in (Maclean et al., 2010b. Mol. Genet. Metab. 101, 153-162). Metabolites were determined by stable-isotope-dilution liquid chromatography mass spectrometry.
The betaine and betaine+PEGC15S groups were treated with 2% betaine in the drinking water throughout the 18 days of the experiment, and the latter group was injected with 7.5 mg/kg PEGC15S on days 14 and 15. The PEGC15S single treatment group was maintained on regular water and injected on days 14 and 15 as well. […] The betaine single treatment group maintained these levels of tHcy to day 18. […] Thus, the combination of PEGC15S with betaine allows for maintaining lower tHcy levels for an extended period of time.

Data set [2] is described as follows: Pharmacokinetics of htCBS after a single dose (plasma CBS activity). It counts as in vivo, C57BL/6J mice. To be noted: for observed peak plasma level: first 4 hours. The method, then: The pharmacokinetic properties of a pharmacologically active substance that is administered to circulation is greatly affected by natural mechanisms of ADME. Rapid clearance of the injected molecule may greatly impact treatment efficacy and thus longer circulating half-lives are desired, which may translate into less frequent administrations or smaller doses that in turn minimize the side effects. To determine the pharmacokinetics of htCBS in plasma circulation, a single dose of 5 mg/kg was injected via subcutaneous (SC), intravenous (IV) or intraperitoneal (IP) routes to C57BL/6J mice.

The nature of data set [3]: htCBS activity during in vitro incubation in mouse plasma at 37° C. The format is in vitro ADME, wild type or HO mice. The method, then: The rapid decline in htCBS activity in vivo may be attributed to a facilitated clearance from circulation and may also be attributed to the loss of enzymatic activity of htCBS once introduced to the environment in circulation. To test the latter, htCBS was incubated in vitro in mouse plasma of wild type or HO mice at 37° C. for up to 96 hours, with activity measured every 24 hours. […] A modest 25% loss of activity was recorded after 96 hours of incubation.

Data set [4] can be described thus: CBS enzyme activity assay, specific activity of pure enzyme. The format is biochemical. To be noted: PEGylated vs non-PEGylated htCBS.
Procedure: CBS activity was determined by a radioisotope assay with C^14-labeled serine as a substrate. Ten μl (total 490 ng) of pure htCBS in dilution buffer (0.1 M Tris-HCl pH=8.6, 1 mM DTT, 10 μM PLP, 0.5 mg/ml BSA) or 10 μl of plasma were added to 85 μl of reaction mixture containing 0.1 M Tris-HCl pH=8.6, 10 mM L-serine, 0.5 mM PLP, 0.5 mg/ml BSA and 0.3 μCi (for pure enzyme) or 0.45 μCi (for plasma) of L-[C^14(U)]-Serine. Samples were incubated for 5 min at 37° C. and reaction was initiated by addition of 5 μl of 0.2 M Hcy (10 mM final concentration). Following 30 min of incubation at 37° C., a 20 μl aliquot of the assay mixture was applied onto a grade 3 CHR Whatman (NJ, USA) paper. Assay initiation and sampling of the resulting mixture were staggered so that each reaction time was 30 minutes. Descending paper chromatography was used to isolate the radioactive product (Cth) from a labeled substrate (Ser). The C^14-cystathionine formed in the reaction was separated from C^14-serine by an overnight descending paper chromatography in 2-propanol/formic acid/H2O (75:5.7:18.9 v/v). Radioactivity in the area of the marker cystathionine (detected by staining the marker lane with ninhydrin) was determined by cutting the chromatogram into strips that were submerged in 5 ml of Opti-fluor scintillation cocktail (PerkinElmer, MA, USA) and counted in a Beckman LS-3801 scintillation counter. An enzyme-free sample was used as a blank to monitor the background radioactivity that was then subtracted from each sample. For pure enzyme, specific activity values are expressed as enzyme units (the amount of enzyme that produces 1 μmol of cystathionine/hour) per mg of CBS, and for plasma samples as units per μl plasma.
Data set [5] has as its system homocysteine, cystathionine and cysteine. Put plainly: Repeated administration of htCBS or PEGhtCBS: plasma and tissue metabolites. It counts as in vivo, HO mice. To be noted: 5 mg/kg, 5 consecutive days on weeks 1 and 3. The method, then:
as §1
This lack of metabolic modulation by non-PEGylated htCBS further confirms the necessity to modify htCBS by covalent attachment of polyethylene glycol molecules.
The long term effect of PEGhtCBS administration was monitored using HO mice. The PEGhtCBS enzyme was administered to 8 HO mice at a dose of 7.5 mg/kg, twice a week (Monday and Thursday) for the first two weeks, and then three times a week (Monday, Wednesday and Friday) for 6 weeks. Blood samples were collected 24 hours (Tuesday) and 72 hours (Monday) post injection (FIG. 4A-4C). […] Cystathionine and cysteine levels were positively influenced as well. […] In addition to analysis of plasma metabolites levels, liver, kidney and brain tissue samples from the injected mice were analyzed as well to determine the levels of non-protein bound homocysteine (free and disulfide-linked forms).

Results on 2 compounds are retold here after patent US12194082B2, “Compositions and methods for treatment of homocystinuria” (THE REGENTS OF THE UNIVERSITY OF COLORADO, priority 2016, dated 2025).

Values joined by “and” are separate entries in the source; they are usually repeats but may differ in a detail not shown here. Equal entries are not always repeated.

`C[N+](C)(C)CC(=O)O` [betaine, N,N,N-trimethylglycine]: the “decrease in tHcy” value in data set [1] (14 days of 2% betaine in drinking water) was 29% and 32%. Moreover, the cystathionine change entry in data set [1] (throughout the 18 days) is “did not result in an increase”.

For “htCBS: truncated recombinant human CBS (SEQ ID NO: 3) where the C-terminal regulatory region has been removed”, in data set [2] (5 mg/kg IP), the “AUC(0-t) (obs area)” value was determined as 932.4 mU-hr/μL, the Bioavailability came to 92%, the “E Half-life” value came out at 4.3 h and the “MRT (area)” value is 7.9 h. For the same compound, in data set [2] (5 mg/kg IP), the “cmax (obs)” value stood at 75.9 Mu/μL and the “observed peak plasma level” value was no more than 76 mU/μL. In addition, in data set [2] (5 mg/kg IV), the “AUC(0-t) (obs area)” value was 1011 mU-hr/μL, the “E Half-life” value was 2.7 h, the “MRT (area)” value is 4.9 h and the “observed peak plasma level” value is reported as “up to 123 mU/μL”. In addition, in data set [2] (5 mg/kg SC), the “AUC(0-t) (obs area)” value was found to be 500.9 mU-hr/μL, the Bioavailability is listed as 50%, the “E Half-life” value is 6.1 h and the “MRT (area)” value amounted to 9.5 h. In addition, the “cmax (obs)” value in data set [2] (5 mg/kg SC) is reported as 34.5 Mu/μL. Besides, in data set [3] (after 96 hours), the “loss of activity in mouse plasma” value is listed as 25%. The “loss of activity in mouse plasma” value in data set [3] (up to 72 hours) is “no significant loss of activity”. Moreover, the “Specific Activity” value in data set [4] came out at 1193. The serum homocysteine levels result in data set [5] was “no change”.
